The target of assay [1] is T1, human melanocortin-3 receptor (human, UniProt P41968 1-323).
T1 construct: whole, on cells; Assayed as membranes prepared from stably expressing cells; also called hMC3R; MC3R
The assay is described as follows: inhibition of 125I-NDP-α-MSH binding to membranes of cells expressing human MC3R. The method, then:
(§1) Binding assays were done in the same manner as described in Fong et al., 1997, Biochem. Biophys. Res. Comm. 237:629–631. Binding assays were carried out using membranes prepared from L cells or CHO cells stably expressing human MC3R, MC4R or MC5R. […] The above mixture in binding buffer (50 mM Tris, 2 mM CaCl_2, 1 mM MgCl_2, 5 mM KCl, pH 7.2) was incubated at room temperature for 2 hours, followed by filtration through GFC paper. The bound ligand was quantitated in a γ counter. IC$50$ values were calculated as previously described (Fong et al., 1996, Mol. Pharmacol. 50:1605–1611).

The target of assay [2] is T2, human melanocortin-4 receptor (human, UniProt P32245 1-332).
T2 construct: whole, on cells; Assayed as membranes prepared from stably expressing cells; also called hMC4R; MC4R
T2 sequence (P32245 whole entry): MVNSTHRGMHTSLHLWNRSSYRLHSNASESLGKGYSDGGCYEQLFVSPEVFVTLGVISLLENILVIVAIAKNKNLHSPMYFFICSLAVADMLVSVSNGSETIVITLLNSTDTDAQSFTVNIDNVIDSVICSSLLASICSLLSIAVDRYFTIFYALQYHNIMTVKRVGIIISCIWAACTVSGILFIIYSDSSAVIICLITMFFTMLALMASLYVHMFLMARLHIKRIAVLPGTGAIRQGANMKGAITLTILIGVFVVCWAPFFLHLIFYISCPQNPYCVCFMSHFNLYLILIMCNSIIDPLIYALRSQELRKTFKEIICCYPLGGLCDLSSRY
The assay is described as follows: inhibition of 125I-NDP-α-MSH binding to membranes of cells expressing human MC4R. The method, then:
as §1

T1 sequence (P41968 whole entry): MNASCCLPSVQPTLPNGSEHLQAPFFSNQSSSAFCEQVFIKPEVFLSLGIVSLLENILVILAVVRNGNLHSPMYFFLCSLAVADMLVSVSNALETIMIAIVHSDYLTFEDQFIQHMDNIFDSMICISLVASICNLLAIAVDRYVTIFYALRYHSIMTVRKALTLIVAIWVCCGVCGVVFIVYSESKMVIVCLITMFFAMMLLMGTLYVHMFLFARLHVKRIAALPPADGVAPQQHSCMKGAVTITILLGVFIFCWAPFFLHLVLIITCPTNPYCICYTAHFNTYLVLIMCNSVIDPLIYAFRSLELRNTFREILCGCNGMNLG

B1: c-ART-b (ligand)
chain: AQMGLALQDREPRSSRRCVRLHESCLGQQVPCCDPCATCYCRFFNAFCYCRKLGTAMNPCSRTLVPRGSGSELGTKLGPEQKLISEEDLNSAVDHHHHHH
notes: Secreted into the culture medium of transfected COS-7 cells and used as concentrated medium; also called ART polypeptide
Consider B1, for which the 50% inhibitory concentration (IC50) in assay [1] was determined as 1.9 nM; in assay [2], 1.4 nM.

B2: full-length human ART protein (ligand)
chain: AQMGLAPMEGIRRPDQALLPELPGLGLRAPLKKTNAEQAEEDLLQEAQALAEVLDLQDREPRSSRRCVRLHESCLGQQVPCCDPCATCYCRFFNAFCYCRKLGTAMNPCSRTLVPRGSGSELGTKLGPEQKLISEEDLNSAVDHHHHHH
notes: also called full length ART; full-length ART protein
In the case of B2, the figures for the concentration for half-maximal inhibition (IC50) in assay [1] and in assay [2] were 1 nM and 0.5 nM, respectively.

(Values after patent US6878520 (MERCK, dated 2005).)
